# According to PMC3176798, “Movement Protein Pns6 of Rice dwarf phytoreovirus Has Both ATPase and RNA Binding Activities”:
# B1: dsR (dsRNA)
# RNA 1: UUCUCCGAACGUGUCACGUUU
# RNA 2: ACGUGACACGUUCGGAGAAUU
# B2: S3m (dsRNA)
# RNA 1: CAAUCAAUAUGCUCGCCCCA
# RNA 2: UGGGGCGAGCAUAUUGAUUG
# B3: S3-3 (dsRNA)
# RNA 1: UGUUUUGCUUGGUUCCUGAU
# RNA 2: AUCAGGAACCAAGCAAAACA
# B4: S3-5 (dsRNA)
# RNA 1: GGCAAAAUCGAGCGAACAAU
# RNA 2: AUUGUUCGCUCGAUUUUGCC
# Columns and labels:
# His-Pns6 [1] = target: T1, His-Pns6 (Rice dwarf phytoreovirus (RDV), UniProt Q85438 1-509); experiment: competition EMSA; vs labeled S3-5a; highest; EMSA: 50 mM Tris-HCl pH 7.5, 50 mM NaCl, 10% glycerol, 20 min on ice; northwestern: 20 mM Tris-HCl pH 7.5, 50 mM NaCl, 0.1% Triton X-100, 1 mM DTT, 1 mM EDTA, 0.02% Ficoll 400 (renaturation and washes at 4 C), UV crosslinking after washing; details: protein: recombinant; tags: His (pET28a); label: 32P 5' end when probe
# T1 sequence: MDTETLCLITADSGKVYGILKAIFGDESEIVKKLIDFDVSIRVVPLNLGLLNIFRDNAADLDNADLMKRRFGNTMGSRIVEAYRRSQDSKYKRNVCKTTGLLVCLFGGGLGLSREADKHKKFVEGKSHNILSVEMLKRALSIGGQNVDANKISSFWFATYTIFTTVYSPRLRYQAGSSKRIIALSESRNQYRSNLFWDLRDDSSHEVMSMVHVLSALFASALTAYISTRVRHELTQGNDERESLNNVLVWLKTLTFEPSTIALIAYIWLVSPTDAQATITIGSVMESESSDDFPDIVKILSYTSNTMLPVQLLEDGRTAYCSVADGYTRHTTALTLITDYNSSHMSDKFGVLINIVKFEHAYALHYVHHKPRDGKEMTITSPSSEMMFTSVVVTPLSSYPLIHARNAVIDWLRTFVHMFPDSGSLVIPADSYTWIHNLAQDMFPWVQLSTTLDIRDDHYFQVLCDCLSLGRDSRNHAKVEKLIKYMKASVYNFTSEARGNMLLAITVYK
# His-Pns6 [2] = target: T1, His-Pns6; experiment: competition EMSA; vs labeled S3-5a; higher than antisense strands; EMSA: 50 mM Tris-HCl pH 7.5, 50 mM NaCl, 10% glycerol, 20 min on ice; northwestern: 20 mM Tris-HCl pH 7.5, 50 mM NaCl, 0.1% Triton X-100, 1 mM DTT, 1 mM EDTA, 0.02% Ficoll 400 (renaturation and washes at 4 C), UV crosslinking after washing; details: protein: recombinant; tags: His (pET28a); label: 32P 5' end when probe
# His-Pns6 [3] = target: T1, His-Pns6; experiment: northwestern blot; EMSA: 50 mM Tris-HCl pH 7.5, 50 mM NaCl, 10% glycerol, 20 min on ice; northwestern: 20 mM Tris-HCl pH 7.5, 50 mM NaCl, 0.1% Triton X-100, 1 mM DTT, 1 mM EDTA, 0.02% Ficoll 400 (renaturation and washes at 4 C), UV crosslinking after washing; details: protein: recombinant; tags: His (pET28a); label: 32P 5' end when probe; 3' overhang 2 nt (UU) on both strands, 19 bp
# His-Pns6 [4] = target: T1, His-Pns6; experiment: competition EMSA; vs labeled S3-5; equal to other dsRNAs; EMSA: 50 mM Tris-HCl pH 7.5, 50 mM NaCl, 10% glycerol, 20 min on ice; northwestern: 20 mM Tris-HCl pH 7.5, 50 mM NaCl, 0.1% Triton X-100, 1 mM DTT, 1 mM EDTA, 0.02% Ficoll 400 (renaturation and washes at 4 C), UV crosslinking after washing; details: protein: recombinant, tags: His (pET28a), blunt
# His-Pns6 [5] = target: T1, His-Pns6; experiment: competition EMSA; vs labeled S3-5a; less than sense strands; EMSA: 50 mM Tris-HCl pH 7.5, 50 mM NaCl, 10% glycerol, 20 min on ice; northwestern: 20 mM Tris-HCl pH 7.5, 50 mM NaCl, 0.1% Triton X-100, 1 mM DTT, 1 mM EDTA, 0.02% Ficoll 400 (renaturation and washes at 4 C), UV crosslinking after washing; details: protein: recombinant; tags: His (pET28a); label: 32P 5' end when probe
binder,measurement,setting,value
GGCAAAAUCGAGCGAACAAU (ssRNA) [S3-5s],binding result,His-Pns6 [1],binds
UGUUUUGCUUGGUUCCUGAU (ssRNA) [S3-3s],binding result,His-Pns6 [2],binds
B1,binding result,His-Pns6 [3],binds
B2,binding result,His-Pns6 [4],binds
B3,binding result,His-Pns6 [4],binds
AUUGUUCGCUCGAUUUUGCC (ssRNA) [S3-5a],binding result,His-Pns6 [5],binds
B4,binding result,His-Pns6 [4]; label: 32P 5' end when probe,binds
AUCAGGAACCAAGCAAAACA (ssRNA) [S3-3a],binding result,His-Pns6 [5],binds
